According to publication PMC11891782:

What was measured:
Experiment in all cases: ELISA; dose-response: 1 μg component adsorbed; rLIC_13355 serially diluted 1:1 from 1 μg, 1 h at 37 °C; anti-His mAb detection; KD by non-linear regression, one site specific binding
[1] = biological target: Native plasminogen, purified
[2] = biological target: Laminin-1 from the basement membrane of Engelbreth-Holm-Swarm mouse sarcoma (mouse) (UniProt P19137)
Plasma fibronectin = biological target: Plasma fibronectin

Row | Substance | Kd [1] | Kd [2] | Kd (Plasma fibronectin)
1 | rLIC_13355, recombinant putative lipoprotein encoded by the gene LIC_13355 of Leptospira interrogans (natural protein) | 0.0118 µM | 0.0185 µM | 
2 | rLIC_13355, recombinant putative lipoprotein encoded by the gene LIC_13355 of Leptospira interrogans (natural protein; other documents disagree on this pair) |  |  | 3.49 µM
